Measurements taken from patent publication US20210340270A1 (Amgen, published 2021).

Legend:
[1] = molecular target: human and rat Jagged-1 (recombinant purified Notch ligands in the ELISA); test: direct binding ELISA on recombinant purified Notch ligands
[2] = molecular target: T1, recombinant human Jagged1 extracellular domain (Met 1-Ser 1046), fused with a polyhistidine tag at the … (human, UniProt P78504 34-1046); test: Octet Red96 BLI; mAb captured on AHC anti-HuFc biosensors, soluble hJagged1 as analyte; mean of 3 experiments
T1 construct: Bought protein; also called hJagged1; soluble recombinant hJagged1; not shown: C-terminal polyhistidine tag
Experimental: (§1) The affinity of the soluble recombinant hJagged1 was determined in Octet platform (Octet Red96) under the manufactures recommended kinetic measurement settings. Briefly, hJagged1 was diluted 1 to 3 from 150 nM to 0.5 nM in Octet buffer (10 mM Tris base, 150 mM NaCl, 1 mM CaCl2, 0.1 mg/ml BSA, 0.1% Triton X100) and 60 ul of this serial diluted samples were taken in 384 well tilted bottom (TW384) black polypropylene microplate (Forte Bio, Cat #18-0019) (sample plate). 3 ug/ml of anti-hJagged1 mAb 15D11.1 present in 60 ul in sample plate was used and captured on AHC—anti-HuFc (Kinetic) biosensors (cat #18-5060). A sample with buffer alone is used as a control.

[3] = molecular target: T2, Recombinant Mouse DLL4 His tag (R&D Systems Cat #: 1389-D4-050) (mouse, UniProt Q9JI71 28-525); test: ELISA, 1 ug/ml ligand coated on the plate, 15D11.1 titrated, absorbance 450 nm
T2 construct: Bought construct; also called murine Deltalike 4; not shown: His tag
T2 sequence (Q9JI71 28-525 limits assumed): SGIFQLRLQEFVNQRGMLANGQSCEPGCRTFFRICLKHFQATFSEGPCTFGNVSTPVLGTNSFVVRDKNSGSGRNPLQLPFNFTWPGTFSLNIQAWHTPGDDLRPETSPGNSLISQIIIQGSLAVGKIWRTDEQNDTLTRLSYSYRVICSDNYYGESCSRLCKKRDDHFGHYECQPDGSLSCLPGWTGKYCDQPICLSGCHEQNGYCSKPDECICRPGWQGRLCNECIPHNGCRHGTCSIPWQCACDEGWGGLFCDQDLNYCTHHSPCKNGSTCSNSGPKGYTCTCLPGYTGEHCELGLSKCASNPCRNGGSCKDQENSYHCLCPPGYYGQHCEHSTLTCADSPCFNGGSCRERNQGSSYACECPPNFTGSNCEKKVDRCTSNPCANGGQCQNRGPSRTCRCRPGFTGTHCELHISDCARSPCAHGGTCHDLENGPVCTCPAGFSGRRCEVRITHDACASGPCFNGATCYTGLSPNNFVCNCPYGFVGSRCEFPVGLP
Experimental: (§2) 15D11.1 was tested for binding to recombinant purified Notch ligands; human Jagged1 Fc (Recombinant Human Jagged 1 Fc chimera—R&D Systems Cat #: 1277-M-050), human Jagged1 His (Human JAG1/Jagged1 His Tag Sino Biological Cat #: 11648-H08H), rat Jagged1 Fc (Recombinant Rat Jagged 1 Fc chimera—R&D Systems—Cat #: 599-JG-050), human Jagged2 (Recombinant Human Jagged 2 Fc chimera—R&D Systems Cat #: 1726-JG-050), murine Jagged2 (Recombinant Mouse Jagged 2 Fc chimera—R&D Systems Cat #: 4748-JG-050), murine Delta-like 1 (Recombinant Mouse DLL1 His tag—Sino Biological Cat #: 50522-M08H-50), human Deltalike 4 (Recombinant Human DLL4 His tag—R&D Systems—Cat #: 1506-D4-050) and murine Deltalike 4 (Recombinant Mouse DLL4 His tag—R&D Systems—Cat #: 1389-D4-050) using a standard enzyme-linked immunosorbent assay (ELISA). 1 ug/ml of Notch ligand protein (as indicated) in PBS, pH7.4, was coated onto ELISA plates (Nunc Maxisorp) at 4° C. overnight. Plates were blocked with Casein blocker in PBS (Pierce) for one hour at room temperature. Serial 2-fold dilutions of 15D11.1
(§3) in PBST buffer (PBT buffer (PBS+0.05% (v/v) Tween 20) with 0.5% (w/v) BSA) were added to the plates and incubated for one hour at room temperature. The plates were then washed with PBST and bound antibodies were detected with peroxidase-conjugated goat anti-human Fab specific IgG (Sigma). TMB substrate (3,3′,5,5′-tetramethylbenzidine) was used and absorbance at 450 nm was read using a standard ELISA plate reader. Absorbance was plotted against concentrations of 15D11.1 in FIGS. 8A and 8B.

[4] = molecular target: T3, Recombinant Mouse Jagged 2 Fc chimera (R&D Systems Cat #: 4748-JG-050) (mouse, UniProt Q9QYE5 27-1082); test: as above
T3 construct: Bought construct; also called murine Jagged2; not shown: Fc part and any linker of the bought chimera not described
T3 sequence (Q9QYE5 27-1082, change not shown): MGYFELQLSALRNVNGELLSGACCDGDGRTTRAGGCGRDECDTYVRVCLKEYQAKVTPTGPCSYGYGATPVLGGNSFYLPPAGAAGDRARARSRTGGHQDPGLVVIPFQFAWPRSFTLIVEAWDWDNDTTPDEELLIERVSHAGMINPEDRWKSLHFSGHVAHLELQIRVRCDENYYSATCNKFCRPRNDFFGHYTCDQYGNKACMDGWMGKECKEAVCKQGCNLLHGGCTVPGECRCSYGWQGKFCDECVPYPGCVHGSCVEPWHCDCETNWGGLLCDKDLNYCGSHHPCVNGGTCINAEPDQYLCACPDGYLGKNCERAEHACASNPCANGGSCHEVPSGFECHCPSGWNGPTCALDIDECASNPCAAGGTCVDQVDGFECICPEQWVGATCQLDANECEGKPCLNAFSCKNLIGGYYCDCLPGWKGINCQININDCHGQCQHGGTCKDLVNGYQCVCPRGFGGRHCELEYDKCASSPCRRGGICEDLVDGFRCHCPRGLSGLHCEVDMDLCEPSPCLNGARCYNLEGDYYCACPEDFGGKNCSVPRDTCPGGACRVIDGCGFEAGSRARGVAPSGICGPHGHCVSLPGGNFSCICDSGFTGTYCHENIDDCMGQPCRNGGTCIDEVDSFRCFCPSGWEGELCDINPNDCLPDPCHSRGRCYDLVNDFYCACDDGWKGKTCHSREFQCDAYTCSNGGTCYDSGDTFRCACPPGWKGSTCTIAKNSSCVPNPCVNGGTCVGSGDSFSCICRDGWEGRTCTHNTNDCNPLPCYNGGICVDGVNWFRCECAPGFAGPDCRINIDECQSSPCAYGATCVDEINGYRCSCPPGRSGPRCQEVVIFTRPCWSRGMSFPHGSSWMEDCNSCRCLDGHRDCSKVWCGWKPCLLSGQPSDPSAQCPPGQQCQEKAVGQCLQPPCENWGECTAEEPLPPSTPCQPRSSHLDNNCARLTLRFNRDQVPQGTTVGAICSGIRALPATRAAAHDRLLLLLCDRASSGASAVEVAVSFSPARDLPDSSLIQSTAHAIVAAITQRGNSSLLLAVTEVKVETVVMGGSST
Experimental: as §2, §3

[5] = molecular target: T4, Recombinant Human DLL4 His tag (R&D Systems Cat #: 1506-D4-050) (human, UniProt Q9NR61 27-524); test: as above
T4 construct: Bought construct; also called human Deltalike 4; not shown: His tag
Experimental: as §2, §3

[6] = molecular target: T5, Recombinant Mouse DLL1 His tag (Sino Biological Cat #: 50522-M08H-50) (mouse, UniProt Q61483 18-540); test: as above
T5 construct: Bought construct; also called murine Delta-like 1; not shown: His tag
Experimental: as §2, §3

[7] = molecular target: T6, Recombinant Human Jagged 2 Fc chimera (R&D Systems Cat #: 1726-JG-050) (human, UniProt Q9Y219 27-1080); test: as above
T6 construct: Bought construct; not shown: Fc part and any linker of the bought chimera not described
T6 sequence (Q9Y219 27-1080, change not shown): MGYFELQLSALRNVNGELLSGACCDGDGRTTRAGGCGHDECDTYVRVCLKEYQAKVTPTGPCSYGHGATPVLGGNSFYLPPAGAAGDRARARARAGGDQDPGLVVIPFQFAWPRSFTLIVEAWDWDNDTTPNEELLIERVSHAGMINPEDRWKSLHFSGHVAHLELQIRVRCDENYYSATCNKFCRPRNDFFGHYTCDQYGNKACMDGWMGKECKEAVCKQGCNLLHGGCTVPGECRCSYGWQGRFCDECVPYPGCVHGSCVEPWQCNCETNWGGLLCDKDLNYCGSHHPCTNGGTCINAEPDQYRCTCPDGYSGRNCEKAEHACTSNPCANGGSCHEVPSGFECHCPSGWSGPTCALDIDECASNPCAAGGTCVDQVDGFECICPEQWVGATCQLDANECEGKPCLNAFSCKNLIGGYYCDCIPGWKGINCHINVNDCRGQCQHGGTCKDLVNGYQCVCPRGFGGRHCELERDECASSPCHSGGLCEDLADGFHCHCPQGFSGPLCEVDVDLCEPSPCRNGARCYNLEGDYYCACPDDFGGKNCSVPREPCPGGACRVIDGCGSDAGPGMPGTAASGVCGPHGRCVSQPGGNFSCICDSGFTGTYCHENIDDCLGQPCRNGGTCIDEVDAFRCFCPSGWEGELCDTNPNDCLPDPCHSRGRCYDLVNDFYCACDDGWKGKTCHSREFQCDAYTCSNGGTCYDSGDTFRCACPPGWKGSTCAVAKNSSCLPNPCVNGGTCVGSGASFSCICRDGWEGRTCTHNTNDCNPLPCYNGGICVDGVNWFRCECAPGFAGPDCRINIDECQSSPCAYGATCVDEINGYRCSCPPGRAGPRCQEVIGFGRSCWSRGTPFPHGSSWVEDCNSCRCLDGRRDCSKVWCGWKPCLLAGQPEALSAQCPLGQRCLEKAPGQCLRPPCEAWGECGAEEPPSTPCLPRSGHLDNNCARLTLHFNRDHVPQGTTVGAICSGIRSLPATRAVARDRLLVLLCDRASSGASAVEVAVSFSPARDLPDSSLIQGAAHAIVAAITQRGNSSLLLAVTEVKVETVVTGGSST
Experimental: as §2, §3

[8] = molecular target: T1, recombinant human Jagged1 extracellular …; test: Octet Red96 BLI; mAb captured on AHC anti-HuFc biosensors, soluble hJagged1 as analyte; mean of 3 experiments (same KD as r8c2, in nM)
Experimental: as §1

[9] = molecular target: T7, Recombinant Human Jagged 1 Fc chimera (R&D Systems Cat #: 1277-M-050) (human, UniProt P78504 32-1046); test: direct binding ELISA; 1 ug/ml ligand coated, antibody titrated, anti-human Fab-HRP detection (printed as IC50)
T7 construct: also called hJAG1 Fc; not shown: Fc part and any linker of the bought chimera not described
Experimental: as §2, §3

[10] = molecular target: T8, Human JAG1/Jagged1 His Tag (Sino Biological Cat #: 11648-H08H) (human, UniProt P78504 34-1046); test: as above
T8 construct: also called human Jagged1 His; hJAG1 His; not shown: His tag
Experimental: as §2, §3

[11] = molecular target: T9, Recombinant Rat Jagged 1 Fc chimera (R&D Systems Cat #: 599-JG-050) (rat, UniProt Q63722 32-1046); test: as above
T9 construct: Bought construct; also called rJAG1; not shown: Fc part and any linker of the bought chimera not described
Experimental: as §2, §3

[12] = molecular target: human Jagged-1 expressed on transfected 293 / 293T cells (human, UniProt P78504 34-1218); test: cell-based or functional assay
Sequence of human Jagged-1 expressed on transfected 293 / 293T cells (P78504 34-1218 P227R/N498D limits assumed): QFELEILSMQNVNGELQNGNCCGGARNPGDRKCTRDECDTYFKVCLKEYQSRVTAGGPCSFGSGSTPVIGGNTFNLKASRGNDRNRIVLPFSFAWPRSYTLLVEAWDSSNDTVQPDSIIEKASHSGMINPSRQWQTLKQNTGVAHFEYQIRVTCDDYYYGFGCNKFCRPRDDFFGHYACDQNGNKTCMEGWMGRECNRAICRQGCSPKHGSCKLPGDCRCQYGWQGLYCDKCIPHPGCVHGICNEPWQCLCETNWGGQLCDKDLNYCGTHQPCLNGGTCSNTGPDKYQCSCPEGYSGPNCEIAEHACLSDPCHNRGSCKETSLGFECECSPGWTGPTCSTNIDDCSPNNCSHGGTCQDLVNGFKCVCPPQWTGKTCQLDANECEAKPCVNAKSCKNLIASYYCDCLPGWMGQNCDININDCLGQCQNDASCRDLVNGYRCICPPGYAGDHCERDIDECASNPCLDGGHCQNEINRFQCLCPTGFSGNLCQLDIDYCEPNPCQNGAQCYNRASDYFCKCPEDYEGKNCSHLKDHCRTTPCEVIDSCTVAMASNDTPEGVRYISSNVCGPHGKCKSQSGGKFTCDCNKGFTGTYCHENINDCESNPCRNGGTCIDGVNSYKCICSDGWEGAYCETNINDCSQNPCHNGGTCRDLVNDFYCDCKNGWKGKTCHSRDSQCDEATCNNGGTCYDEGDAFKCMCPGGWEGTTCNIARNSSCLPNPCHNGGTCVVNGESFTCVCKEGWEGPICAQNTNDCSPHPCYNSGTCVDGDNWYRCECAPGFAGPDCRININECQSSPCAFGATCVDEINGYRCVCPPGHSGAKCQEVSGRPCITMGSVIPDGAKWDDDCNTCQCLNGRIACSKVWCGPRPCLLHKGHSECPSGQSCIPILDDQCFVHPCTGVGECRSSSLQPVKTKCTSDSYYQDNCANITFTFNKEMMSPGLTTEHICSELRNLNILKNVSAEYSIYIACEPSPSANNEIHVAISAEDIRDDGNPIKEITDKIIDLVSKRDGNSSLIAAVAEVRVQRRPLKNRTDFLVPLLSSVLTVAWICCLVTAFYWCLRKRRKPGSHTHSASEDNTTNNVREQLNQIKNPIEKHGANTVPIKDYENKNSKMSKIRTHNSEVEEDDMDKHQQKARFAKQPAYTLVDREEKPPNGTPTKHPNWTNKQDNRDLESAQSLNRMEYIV

[13] = molecular target: murine Jagged-1 stably expressed on 293T cells (mouse, UniProt Q9QXX0 34-1218); test: cell-based or functional assay
Sequence of murine Jagged-1 stably expressed on 293T cells (Q9QXX0 34-1218): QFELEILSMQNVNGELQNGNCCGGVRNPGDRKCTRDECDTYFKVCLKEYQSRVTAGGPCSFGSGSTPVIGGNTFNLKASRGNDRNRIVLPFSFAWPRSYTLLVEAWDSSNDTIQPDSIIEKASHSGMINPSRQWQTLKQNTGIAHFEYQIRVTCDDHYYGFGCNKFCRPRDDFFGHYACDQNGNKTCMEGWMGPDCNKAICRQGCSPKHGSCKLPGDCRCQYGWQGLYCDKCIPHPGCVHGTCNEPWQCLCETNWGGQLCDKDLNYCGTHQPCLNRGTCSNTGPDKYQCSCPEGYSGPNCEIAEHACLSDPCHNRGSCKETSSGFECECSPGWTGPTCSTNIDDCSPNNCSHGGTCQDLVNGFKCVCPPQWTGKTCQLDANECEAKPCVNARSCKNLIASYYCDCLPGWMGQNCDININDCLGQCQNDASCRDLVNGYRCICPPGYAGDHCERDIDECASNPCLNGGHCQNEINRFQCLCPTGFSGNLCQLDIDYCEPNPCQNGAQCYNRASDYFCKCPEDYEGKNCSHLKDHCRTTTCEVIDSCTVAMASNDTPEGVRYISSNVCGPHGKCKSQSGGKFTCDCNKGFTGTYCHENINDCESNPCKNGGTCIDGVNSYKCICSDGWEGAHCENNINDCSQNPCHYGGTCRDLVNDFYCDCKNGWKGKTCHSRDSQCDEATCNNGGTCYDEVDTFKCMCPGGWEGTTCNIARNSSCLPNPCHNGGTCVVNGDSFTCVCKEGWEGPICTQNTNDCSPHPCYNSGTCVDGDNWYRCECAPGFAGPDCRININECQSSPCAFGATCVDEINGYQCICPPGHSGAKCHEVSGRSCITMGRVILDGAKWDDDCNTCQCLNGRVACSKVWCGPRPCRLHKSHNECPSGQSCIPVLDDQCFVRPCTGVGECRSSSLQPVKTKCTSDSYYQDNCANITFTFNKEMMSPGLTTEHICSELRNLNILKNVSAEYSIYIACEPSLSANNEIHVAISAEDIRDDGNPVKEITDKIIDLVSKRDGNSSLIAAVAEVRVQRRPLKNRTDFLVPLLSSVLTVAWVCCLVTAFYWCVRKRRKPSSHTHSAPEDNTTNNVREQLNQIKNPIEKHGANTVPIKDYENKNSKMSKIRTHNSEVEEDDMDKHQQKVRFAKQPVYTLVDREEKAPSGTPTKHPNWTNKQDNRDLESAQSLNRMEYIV

[14] = molecular target: T7, Recombinant Human Jagged 1 Fc chimera …; test: ELISA, 1 ug/ml ligand coated on the plate, 15D11.1 titrated, absorbance 450 nm; single experiment shown (the text prints only a mean of n = 3)
Experimental: as §2, with “1 ug/ml of Notch ligand protein (as indicated) in PBS, pH7.4, was coated onto ELISA plates (Nunc Maxisorp) at 4° C. overnight. Plates were blocked with Casein blocker in PBS (Pierce) for one hour at room temperature. Serial 2-fold dilutions of 15D11.1” left out
as §3

IC50 [1]: 0.3 to 0.9 nM
koff [2]: 0.000189 s⁻¹
kon [2]: 331000 M⁻¹ s⁻¹
Kd [8]: 0.61 nM
IC50 [9]: 0.8 nM
IC50 [10]: 0.39 nM
IC50 [11]: 0.51 nM
IC50, human Jagged-1 induced human Notch2 activation co-culture assay (12xCSL firefly luciferase reporter in SK-MEL-28 cells) [12]: 1.69 nM
avg IC50, human Jagged-1 induced human Notch2 activation co-culture assay (12xCSL firefly luciferase reporter in SK-MEL-28 cells) [12]: 2.31 nM
IC50, murine Jagged-1 induced murine Notch1 activation co-culture assay (7xCSL firefly luciferase reporter in 293T/murine Notch1 cells) [13]: 7.72 nM
avg IC50, murine Jagged-1 induced murine Notch1 activation co-culture assay (7xCSL firefly luciferase reporter in 293T/murine Notch1 cells) [13]: 9 nM
EC50 (read off the curve) [14]: ~0.4 nM
B1: anti-hJagged1 mAb 15D11.1 (antibody, V domains shown)
VH: QVTLKESGPVLVKPTETLTLTCTVSGFSLSNAEMGVSWIRQPPGKALEWLAHLFSNDEKSYSTSLKSRLTISKDTSKSQVVLTMTDLDPVDTATYYCARSFNWNYDFDYWGQGTLVTVSS
VL: QSALTQPASVSGSPGQSITISCTGTSSAVGGHNFVSWYQQYPGKAPKLMIYEVSNRPSGVSTRFSGSKSGNTASLTISGLQAEDEADYYCSSYTSSSTWVFGGGTRLTVL
notes: Fully human monoclonal antibody from XenoMouse (XMG2-KL / XMG4-KL) hybridomas; also called iPS:480499; anti-Jag-1 15D11.1
binding result [3]: no binding (tested: about log 1.8 nM (about 60 nM))
binding result [4]: no binding (tested: about log 1.8 nM (about 60 nM))
binding result [5]: no binding (tested: about log 1.8 nM (about 60 nM))
binding result [6]: no binding (tested: about log 1.8 nM (about 60 nM))
binding result [7]: no binding (tested: about log 1.8 nM (about 60 nM))
